Sequences and labels used below:
B1: 365_B12 (antibody, V domains shown)
VH: EVQLLESGGGLVQPGGSLRLSCAASGFTFSDYGMHWVRQAPGKGLEWVSGINYNGGYTSYADSVKGRFTISRDNSKNTLYLQMNSLRAEDTAVYYCARAATWHDTHLDYWGQGTLVTVSS
VL: DIQMTQSPSSLSASVGDRVTITCRASQSISTYVNWYQQKPGKAPKLLIYAVTSLHSGVPSRFSGSGSGTDFTLTISSLQPEDFATYYCQQSYDNPLTFGGGTKVEIK
B2: 365_G06 (antibody, V domains shown)
VH: EVQLLESGGGLVQPGGSLRLSCAASGFTFDSYGMHWVRQAPGKGLEWVAGINYNGGYTSYADSVKGRFTISRDNSKNTLYLQMNSLRAEDTAVYYCARAATWHDTHLDYWGQGTLVTVSS
VL: DIQMTQSPSSLSASVGDRVTITCRASQSILSYLNWYQQKPGKAPKLLIYAATSLASGVPSRFSGSGSGTDFTLTISSLQPEDFATYYCQQSDSTPLTFGGGTKVEIK
B3: 373_F02 (antibody, V domains shown)
VH: EVQLLESGGGLVQPGGSLRLSCAASGFTFDSYSMNWVRQAPGKGLEWVSGINYNSGYKSYADSVKGRFTISRDNSKNTLYLQMNSLRAEDTAVYYCARSATWHDTHLDYWGQGTLVTVSS
VL: DIQMTQSPSSLSASVGDRVTITCRASQSILTYLNWYQQKPGKAPKLLIYAATSRASGVPSRFSGSGSGTDFTLTISSLQPEDFATYYCQQSYDTPLTFGGGTKVEIK
B4: 365_D03 (antibody, V domains shown)
VH: EVQLLESGGGLVQPGGSLRLSCAASGFTFDDYSMHWVRQAPGKGLEWVASINYNGGYKSYADSVKGRFTISRDNSKNTLYLQMNSLRAEDTAVYYCARAATWHDTHLDYWGQGTLVTVSS
VL: DIQMTQSPSSLSASVGDRVTITCRASQSIVSYLNWYQQKPGKAPKLVIYAATSRASGVPSRFSGSGSGTDFTLTISSLQPEDFATYYCQQSYDSPLTFGGGTKVEIK
B5: 367_A11 (antibody, V domains shown)
VH: EVQLLESGGGLVQPGGSLRLSCAASGFTFSSYGMHWVRQAPGKGLEWVSGINYNGGYTSYADSVKGRFTISRDNSKNTLYLQMNSLRAEDTAVYYCARSATWHDTHLDYWGQGTLVTVSS
VL: DIQMTQSPSSLSASVGDRVTITCRASQSILSYVNWYQQKPGKAPKLVIYATTSLASGVPSRFSGSGSGTDFTLTISSLQPEDFATYYCQQSYNSPLTFGGGTKVEIK
B6: 376_C07 (antibody, V domains shown)
VH: EVQLLESGGGLVQPGGSLRLSCAASGFTFSSYSMNWVRQAPGKGLEWVSGINYNSGYKGYADSVKGRFTISRDNSKNTLYLQMNSLRAEDTAVYYCARSATWHDTHLDYWGQGTLVTVSS
VL: DIQMTQSPSSLSASVGDRVTITCRASQSILSYVNWYQQKPGKAPKLLIYAATSRHSGVPSRFSGSGSGTDFTLTISSLQPEDFATYYCQQSYDLPLTFGGGTKVEIK
B7: 369_F04 (antibody, V domains shown)
VH: EVQLLESGGGLVQPGGSLRLSCAASGFTFSSYGMNWVRQAPGKGLEWVSGINYNGGYTSYADSVKGRFTISRDNSKNTLYLQMNSLRAEDTAVYYCARSATWHDTHLDYWGQGTLVTVSS
VL: DIQMTQSPSSLSASVGDRVTITCRASQSIISYVNWYQQKPGKAPKLLIYAATSRHSGVPSRFSGSGSGTDFTLTISSLQPEDFATYYCQQSYDNPLTFGGGTKVEIK
B8: 367_C12 (antibody, V domains shown)
VH: EVQLLESGGGLVQPGGSLRLSCAASGFTFSSYGMHWVRQAPGKGLEWVSGINYNGGYTSYADSVKGRFTISRDNSKNTLYLQMNSLRAEDTAVYYCARAATWHDTHLDYWGQGTLVTVSS
VL: DIQMTQSPSSLSASVGDRVTITCRASQSILSYVNWYQQKPGKAPKLLIYATTSRHSGVPSRFSGSGSGTDFTLTISSLQPEDFATYYCQQSYESPLTFGGGTKVEIK
B9: 369_A01 (antibody, V domains shown)
VH: EVQLLESGGGLVQPGGSLRLSCAASGFTFDSYSMNWVRQAPGKGLEWVSGINYNSGYKGYADSVKGRFTISRDNSKNTLYLQMNSLRAEDTAVYYCARSATWHDTHLDYWGQGTLVTVSS
VL: DIQMTQSPSSLSASVGDRVTITCRASQSILTYVNWYQQKPGKAPKLVIYAATSLASGVPSRFSGSGSGTDFTLTISSLQPEDFATYYCQQSYELPLTFGGGTKVEIK
B10: 367_C06 (antibody, V domains shown)
VH: EVQLLESGGGLVQPGGSLRLSCAASGFTFDSYSMHWVRQAPGKGLEWVASINYNGGYKSYADSVKGRFTISRDNSKNTLYLQMNSLRAEDTAVYYCARAATWHDTHLDYWGQGTLVTVSS
VL: DIQMTQSPSSLSASVGDRVTITCRASQSILTYLNWYQQKPGKAPKLVIYAATSLHSGVPSRFSGSGSGTDFTLTISSLQPEDFATYYCQQSYDTPLTFGGGTKVEIK
B11: 365_D04 (antibody, V domains shown)
VH: EVQLLESGGGLVQPGGSLRLSCAASGFTFSDYGMHWVRQAPGKGLEWVAGINYNGGYKSYADSVKGRFTISRDNSKNTLYLQMNSLRAEDTAVYYCARAANWHDTALDYWGQGTLVTVSS
VL: DIQMTQSPSSLSASVGDRVTITCRASQSISSYLNWYQQKPGKAPKLVIYAVTSRASGVPSRFSGSGSGTDFTLTISSLQPEDFATYYCQQSYDLPLTFGGGTKVEIK
B12: 366_C05 (antibody, V domains shown)
VH: EVQLLESGGGLVQPGGSLRLSCAASGFTFDDYGMHWVRQAPGKGLEWVSSINYNGGYTGYADSVKGRFTISRDNSKNTLYLQMNSLRAEDTAVYYCARAATWHDTHLDYWGQGTLVTVSS
VL: DIQMTQSPSSLSASVGDRVTITCRASQSIISYLNWYQQKPGKAPKLVIYAATSRASGVPSRFSGSGSGTDFTLTISSLQPEDFATYYCQQSYDSPLTFGGGTKVEIK
B13: 366_B09 (antibody, V domains shown)
VH: EVQLLESGGGLVQPGGSLRLSCAASGFTFSDYGMHWVRQAPGKGLEWVSSINYNSGYKSYADSVKGRFTISRDNSKNTLYLQMNSLRAEDTAVYYCARAATWHDTHLDYWGQGTLVTVSS
VL: DIQMTQSPSSLSASVGDRVTITCRASQSILTYLNWYQQKPGKAPKLVIYAATSRHSGVPSRFSGSGSGTDFTLTISSLQPEDFATYYCQQSYDSPLTFGGGTKVEIK
B14: 365_F10 (antibody, V domains shown)
VH: EVQLLESGGGLVQPGGSLRLSCAASGFTFDDYGMHWVRQAPGKGLEWVSGINYNGGYTSYADSVKGRFTISRDNSKNTLYLQMNSLRAEDTAVYYCARAATWHDTHLDYWGQGTLVTVSS
VL: DIQMTQSPSSLSASVGDRVTITCRASQSIVTYVNWYQQKPGKAPKLLIYAATSRASGVPSRFSGSGSGTDFTLTISSLQPEDFATYYCQQSYELPLTFGGGTKVEIK
B15: 376_G01 (antibody, V domains shown)
VH: EVQLLESGGGLVQPGGSLRLSCAASGFTFDDYSMNWVRQAPGKGLEWVSGINYNSGYKSYADSVKGRFTISRDNSKNTLYLQMNSLRAEDTAVYYCARSATWHDTHLDYWGQGTLVTVSS
VL: DIQMTQSPSSLSASVGDRVTITCRASQSILSYVNWYQQKPGKAPKLVIYAVTSRASGVPSRFSGSGSGTDFTLTISSLQPEDFATYYCQQSYELPLTFGGGTKVEIK
B16: 365_D08 (antibody, V domains shown)
VH: EVQLLESGGGLVQPGGSLRLSCAASGFTFDSYSMHWVRQAPGKGLEWVSSINYNGGYTSYADSVKGRFTISRDNSKNTLYLQMNSLRAEDTAVYYCARAATWHDTHLDYWGQGTLVTVSS
VL: DIQMTQSPSSLSASVGDRVTITCRASQSIITYVNWYQQKPGKAPKLLIYAATSRASGVPSRFSGSGSGTDFTLTISSLQPEDFATYYCQQSYDTPLTFGGGTKVEIK
B17: 373_H12 (antibody, V domains shown)
VH: EVQLLESGGGLVQPGGSLRLSCAASGFTFSDYSMNWVRQAPGKGLEWVSGINYNSGYKGYADSVKGRFTISRDNSKNTLYLQMNSLRAEDTAVYYCARSATWHDTHLDYWGQGTLVTVSS
VL: DIQMTQSPSSLSASVGDRVTITCRASQSILTYLNWYQQKPGKAPKLLIYAATSRASGVPSRFSGSGSGTDFTLTISSLQPEDFATYYCQQSYNSPLTFGGGTKVEIK
B18: 369_D06 (antibody, V domains shown)
VH: EVQLLESGGGLVQPGGSLRLSCAASGFTFDSYSMNWVRQAPGKGLEWVSGINYNGGYTGYADSVKGRFTISRDNSKNTLYLQMNSLRAEDTAVYYCARSATWHDTHLDYWGQGTLVTVSS
VL: DIQMTQSPSSLSASVGDRVTITCRASQSILTYLNWYQQKPGKAPKLLIYAATSRASGVPSRFSGSGSGTDFTLTISSLQPEDFATYYCQQSYETPLTFGGGTKVEIK
B19: 366_E07 (antibody, V domains shown)
VH: EVQLLESGGGLVQPGGSLRLSCAASGFTFDSYGMHWVRQAPGKGLEWVAGINYNGGYTSYADSVKGRFTISRDNSKNTLYLQMNSLRAEDTAVYYCARAATWHDTALDYWGQGTLVTVSS
VL: DIQMTQSPSSLSASVGDRVTITCRASQSILTYLNWYQQKPGKAPKLVIYAATSRHSGVPSRFSGSGSGTDFTLTISSLQPEDFATYYCQQSDNSPLTFGGGTKVEIK
B20: 366_H01 (antibody, V domains shown)
VH: EVQLLESGGGLVQPGGSLRLSCAASGFTFDDYSMHWVRQAPGKGLEWVANINYNGGYTSYADSVKGRFTISRDNSKNTLYLQMNSLRAEDTAVYYCARAATWHDTHLDYWGQGTLVTVSS
VL: DIQMTQSPSSLSASVGDRVTITCRASQSILTYLNWYQQKPGKAPKLVIYATTSRHSGVPSRFSGSGSGTDFTLTISSLQPEDFATYYCQQSYESPLTFGGGTKVEIK
B21: 366_G02 (antibody, V domains shown)
VH: EVQLLESGGGLVQPGGSLRLSCAASGFTFDSYGMHWVRQAPGKGLEWVSSINYNGGYTSYADSVKGRFTISRDNSKNTLYLQMNSLRAEDTAVYYCARAATWHDTHLDYWGQGTLVTVSS
VL: DIQMTQSPSSLSASVGDRVTITCRASQSILTYLNWYQQKPGKAPKLLIYAATSRHSGVPSRFSGSGSGTDFTLTISSLQPEDFATYYCQQSDDNPLTFGGGTKVEIK

This assay deals with human Fc (human). Put plainly: ELISA, negative control. (In general: ELISA stands for enzyme-linked immunosorbent assay.)
The molecule B1 returned an optical density of 0.307 OD.
In the case of B2 it was 0.32 OD.
In the case of B3 it was 0.175 OD.
B4 showed an optical density of 0.346 OD.
In the case of B5 it was 0.3 OD; in that of B6, 0.265 OD.
In the case of B7 it was 0.369 OD.
In the case of B8 it was 0.31 OD; in that of B9, 0.456 OD; in that of B10, 0.29 OD.
For B11, the optical density stood at 0.316 OD.
In the case of B12 it was 0.269 OD.
B13 returned an optical density of 0.283 OD.
In the case of B14 it was 0.386 OD; in that of B15, 0.227 OD.
In the case of B16 it was 0.35 OD.
In the case of B17 it was 0.162 OD; in that of B18, 0.324 OD.
B19: the optical density was 0.262 OD.
The molecule B20 came in with an optical density of 0.384 OD.
In the case of B21 it was 0.357 OD.

The values above are taken from patent US20210380703A1.
